Residue numbers refer to the chain shown, from its start.
B1: X11 (antibody, human IgG4, V domains shown)
VH: QVQLVQSGAEVKKPGSSVKVSCKASGYNFLNYDVNWVRQAPGQGLEWMGGIIPIFGTANYAQKFQGRVTITADESTSTAYMELSSLRSEDTAVYYCATGVGAGWFDPWGQGTLVTVSS
VL: DIVMTQSPDSLAVSLGERATINCKSSQSVYFSENNKNYLAWYQQKPGQPPKLLIYWASTRESGVPDRFSGSGSGTDFTLTISSLQAEDVAVYYCQQYYEEPYTFGQGTRLEIK
B2: X20 (antibody, human IgG4, V domains shown)
VH: B1 VH with N31H, G99A
VL: B1 VL
B3: X17 (antibody, human IgG4, V domains shown)
VH: B1 VH with N31H, G99A, P107T
VL: B1 VL with Y30F, S32D, Y98F
B4: X14 (antibody, human IgG4, V domains shown)
VH: B1 VH with N31H, G99A, P107T
VL: B1 VL with E33P, Y98F
B5: X4 (antibody, human IgG4, V domains shown)
VH: B1 VH
VL: B1 VL with E33P, Y98F
B6: X18 (antibody, human IgG4, V domains shown)
VH: B1 VH with N31H, G99A, P107T
VL: B1 VL with Y30W, S32D, E33P, Y98F
B7: X7 (antibody, human IgG4, V domains shown)
VH: B1 VH
VL: B1 VL with Y30F, S32D, Y98F

These binders were tested against recombinant cynomolgus PILRB (cynomolgus monkey) (assay: SPR, Biacore T200, antibody captured by anti-Fab).

Kd [nM] | Binder
0.4 | B1

The binders below were run against recombinant cynomolgus PILRB (cynomolgus monkey) (assay: SPR, Carterra LSA, antibody amine-coupled, kinetic fit).

Kd [nM] | Binder
0.1 | B2
0.3 | B3
0.2 | B4
0.5 | B1
0.3 | B5
0.3 | B6
0.5 | B7

Reference: patent US20260070976A1
